Laboratory results published in the supplement of paper PMC10266784.

B1: library; numbered along this chain (parent)
chain: MAAAAAAAAEQQSSNGPVKKSMREKAVERRSVNKEHNSNFKAGYIPIDEDRLHKTGLRGRKGNLAICVIILLFILAVINLIITLVIWAVIRIGPNGCDSMEFHESGLLRFKQVSDMGVIHPLYKSTVGGRRNENLVITGNNQPIVFQQGTTKLSVENNKTSITSDIGMQFFDPRTQNILFSTDYETHEFHLPSGVKSLNVQKASTERITSNATSDLNIKVDGRAIVRGNEGVFIMGKTIEFHMGGNMELKAENSIILNGSVMVSTTRLPSSSSGDQLGSGDWVRYKLCMCADGTLFKVQVTSQNMGCQISDNPCGNTH

Variants of: B1
Test: SGCB cell-surface expression functional score (HA stain, bin4 vs bin1, normalised to synonymous) (log10 ratio); higher = more cell-surface SGCB (functional)
How it was run: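 HEK293 cells stably expressing alpha-, gamma- and delta-sarcoglycan received codon-saturation libraries of HA-tagged, YFP-fused human beta-sarcoglycan by lentiviral transduction at MOI <0.1, performed in duplicate. Cells positive for YFP were sorted after 72 hours and cultured for 5–7 days, then stained on ice with Alexa Fluor 647 anti-HA and fixed. Fixed cells were sorted into four 5% intensity bins and amplicon-sequenced, and the log ratio of highest-bin to lowest-bin variant frequency, as a median over codons and transductions, gives the functional score. Per section, synonymous variants were scaled to mean 0, SD 0.5.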

Question: Which “SGCB cell-surface expression functional score (log10)” value does the source give for MAAAAAAAAEQQSSNGPVKKSMREKAVERRSVNKEHNSNFKAGYIPIDEDRLHKTGLRGRKGNLAICVIILLFILAVINLIITLVIWAVIRIGPNGCDSMEFHESGLLRFKQVSDMGVIHPLYKSTVGGRRNENLVITGMNQPIVFQQGTTKLSVENNKTSITSDIGMQFFDPRTQNILFSTDYETHEFHLPSGVKSLNVQKASTERITSNATSDLNIKVDGRAIVRGNEGVFIMGKTIEFHMGGNMELKAENSIILNGSVMVSTTRLPSSSSGDQLGSGDWVRYKLCMCADGTLFKVQVTSQNMGCQISDNPCGNTH [N140M] here?
Answer: -0.05

Question: Which “SGCB cell-surface expression functional score (log10)” value does the source give for MAAAAAAAAEQQSSNGPVKKSMREKAVERRSVNKEHNSNFKAGYIPIDEDRLHKTGLRGRKGNLAICVIILLFILAVINLIITLVIWAVIRIGPNGCDSMEFHESGLLRFKQVSDMGVIHPLYKSTVGGRRNENLVITGINQPIVFQQGTTKLSVENNKTSITSDIGMQFFDPRTQNILFSTDYETHEFHLPSGVKSLNVQKASTERITSNATSDLNIKVDGRAIVRGNEGVFIMGKTIEFHMGGNMELKAENSIILNGSVMVSTTRLPSSSSGDQLGSGDWVRYKLCMCADGTLFKVQVTSQNMGCQISDNPCGNTH [N140I] here?
Answer: -0.12

Question: Which “SGCB cell-surface expression functional score (log10)” value does the source give for MAAAAAAAAEQQSSNGPVKKSMREKAVERRSVNKEHNSNFKAGYIPIDEDRLHKTGLRGRKGNLAICVIILLFILAVINLIITLVIWAVIRIGPNGCDSMEFHESGLLRFKQVSDMGVIHPLYKSTVGGRRNENLVITGLNQPIVFQQGTTKLSVENNKTSITSDIGMQFFDPRTQNILFSTDYETHEFHLPSGVKSLNVQKASTERITSNATSDLNIKVDGRAIVRGNEGVFIMGKTIEFHMGGNMELKAENSIILNGSVMVSTTRLPSSSSGDQLGSGDWVRYKLCMCADGTLFKVQVTSQNMGCQISDNPCGNTH [N140L] here?
Answer: -0.39

Question: Which “SGCB cell-surface expression functional score (log10)” value does the source give for MAAAAAAAAEQQSSNGPVKKSMREKAVERRSVNKEHNSNFKAGYIPIDEDRLHKTGLRGRKGNLAICVIILLFILAVINLIITLVIWAVIRIGPNGCDSMEFHESGLLRFKQVSDMGVIHPLYKSTVGGRRNENLVITGSNQPIVFQQGTTKLSVENNKTSITSDIGMQFFDPRTQNILFSTDYETHEFHLPSGVKSLNVQKASTERITSNATSDLNIKVDGRAIVRGNEGVFIMGKTIEFHMGGNMELKAENSIILNGSVMVSTTRLPSSSSGDQLGSGDWVRYKLCMCADGTLFKVQVTSQNMGCQISDNPCGNTH [N140S] here?
Answer: -0.38

Question: Which “SGCB cell-surface expression functional score (log10)” value does the source give for MAAAAAAAAEQQSSNGPVKKSMREKAVERRSVNKEHNSNFKAGYIPIDEDRLHKTGLRGRKGNLAICVIILLFILAVINLIITLVIWAVIRIGPNGCDSMEFHESGLLRFKQVSDMGVIHPLYKSTVGGRRNENLVITGPNQPIVFQQGTTKLSVENNKTSITSDIGMQFFDPRTQNILFSTDYETHEFHLPSGVKSLNVQKASTERITSNATSDLNIKVDGRAIVRGNEGVFIMGKTIEFHMGGNMELKAENSIILNGSVMVSTTRLPSSSSGDQLGSGDWVRYKLCMCADGTLFKVQVTSQNMGCQISDNPCGNTH [N140P] here?
Answer: -0.49

Question: With MAAAAAAAAEQQSSNGPVKKSMREKAVERRSVNKEHNSNFKAGYIPIDEDRLHKTGLRGRKGNLAICVIILLFILAVINLIITLVIWAVIRIGPNGCDSMEFHESGLLRFKQVSDMGVIHPLYKSTVGGRRNENLVITGWNQPIVFQQGTTKLSVENNKTSITSDIGMQFFDPRTQNILFSTDYETHEFHLPSGVKSLNVQKASTERITSNATSDLNIKVDGRAIVRGNEGVFIMGKTIEFHMGGNMELKAENSIILNGSVMVSTTRLPSSSSGDQLGSGDWVRYKLCMCADGTLFKVQVTSQNMGCQISDNPCGNTH [N140W] as the variant, how does the “SGCB cell-surface expression functional score (log10)” value read?
Answer: -0.93

Question: With MAAAAAAAAEQQSSNGPVKKSMREKAVERRSVNKEHNSNFKAGYIPIDEDRLHKTGLRGRKGNLAICVIILLFILAVINLIITLVIWAVIRIGPNGCDSMEFHESGLLRFKQVSDMGVIHPLYKSTVGGRRNENLVITGKNQPIVFQQGTTKLSVENNKTSITSDIGMQFFDPRTQNILFSTDYETHEFHLPSGVKSLNVQKASTERITSNATSDLNIKVDGRAIVRGNEGVFIMGKTIEFHMGGNMELKAENSIILNGSVMVSTTRLPSSSSGDQLGSGDWVRYKLCMCADGTLFKVQVTSQNMGCQISDNPCGNTH [N140K] as the variant, how does the “SGCB cell-surface expression functional score (log10)” value read?
Answer: -0.48

Question: For MAAAAAAAAEQQSSNGPVKKSMREKAVERRSVNKEHNSNFKAGYIPIDEDRLHKTGLRGRKGNLAICVIILLFILAVINLIITLVIWAVIRIGPNGCDSMEFHESGLLRFKQVSDMGVIHPLYKSTVGGRRNENLVITGRNQPIVFQQGTTKLSVENNKTSITSDIGMQFFDPRTQNILFSTDYETHEFHLPSGVKSLNVQKASTERITSNATSDLNIKVDGRAIVRGNEGVFIMGKTIEFHMGGNMELKAENSIILNGSVMVSTTRLPSSSSGDQLGSGDWVRYKLCMCADGTLFKVQVTSQNMGCQISDNPCGNTH [N140R], which “SGCB cell-surface expression functional score (log10)” value is on record?
Answer: 0.05

Question: Which “SGCB cell-surface expression functional score (log10)” value does the source give for MAAAAAAAAEQQSSNGPVKKSMREKAVERRSVNKEHNSNFKAGYIPIDEDRLHKTGLRGRKGNLAICVIILLFILAVINLIITLVIWAVIRIGPNGCDSMEFHESGLLRFKQVSDMGVIHPLYKSTVGGRRNENLVITGENQPIVFQQGTTKLSVENNKTSITSDIGMQFFDPRTQNILFSTDYETHEFHLPSGVKSLNVQKASTERITSNATSDLNIKVDGRAIVRGNEGVFIMGKTIEFHMGGNMELKAENSIILNGSVMVSTTRLPSSSSGDQLGSGDWVRYKLCMCADGTLFKVQVTSQNMGCQISDNPCGNTH [N140E] here?
Answer: 0.35

Question: Which “SGCB cell-surface expression functional score (log10)” value does the source give for MAAAAAAAAEQQSSNGPVKKSMREKAVERRSVNKEHNSNFKAGYIPIDEDRLHKTGLRGRKGNLAICVIILLFILAVINLIITLVIWAVIRIGPNGCDSMEFHESGLLRFKQVSDMGVIHPLYKSTVGGRRNENLVITGHNQPIVFQQGTTKLSVENNKTSITSDIGMQFFDPRTQNILFSTDYETHEFHLPSGVKSLNVQKASTERITSNATSDLNIKVDGRAIVRGNEGVFIMGKTIEFHMGGNMELKAENSIILNGSVMVSTTRLPSSSSGDQLGSGDWVRYKLCMCADGTLFKVQVTSQNMGCQISDNPCGNTH [N140H] here?
Answer: -0.65
